From patent US20120264815, “REVERSIBLE PLATELET INHIBITION” (DUKE UNIVERSITY, published 2012)

How the values were obtained:
[1] = target: T1, von Willebrand factor (VWF) (Homo sapiens, UniProt P04275 P04275:764-2813); test: filter; buffer F, 150 mM NaCl, 2 mM CaCl2, 37 C; Bmax 61%; conditions: tags: Haematologic Technologies Inc. (factor VIII free); label: 5'-32P
Experimental: Dissociation constants (Kd) of each truncate were determined using double-filter nitrocellulose filter binding assays (Pergolizzi et al, Blood 108:862-869 (2006)). All binding studies were performed in binding buffer F (20 mM HEPES, pH 7.4, 150 mM NaCl, 2 mM CaCl₂, and 0.1% BSA) at 37° C. Human purified VWF (with factor VIII and factor VIII free) was purchased from Haematologic Technologies Inc. (Essex Junction, VT) and used in the double-filter nitrocellulose filter binding assay to determine the Kd of individual clones. Briefly, RNA was dephosphorylated using bacterial alkaline phosphatase (Gibco BRL, Gaithberg, Md.) and end-labeled at the 5′ end with T4 polynucleotide kinase (New England Biolabs, Beverly, Mass.) and [γ³²P] ATP (Amersham Pharmacia Biotech, Piscataway, N.J.). Direct binding was performed by incubating ³²P—RNA with VWF in physiological buffer+1 mg/ml BSA at 37° C. for 5 min. The fraction of the nucleic acid-protein complex which bound to the nitrocellulose membrane was quantified with a phosphoimager (Molecular Dynamics, Sunnyvale, Calif.).

[2] = target: T1, von Willebrand factor (VWF); test: filter; nitrocellulose filter binding, 37 C, 2 mM CaCl2; conditions: tags: Haematologic Technologies Inc. (factor VIII free); label: 5'-32P
Experimental: (§1) Affinity constants (Kd values) were determined using double-filter nitrocellulose filter binding assays (Rusconi et al, Thromb. Haemost. 84:841-848 (2000)). All binding studies were performed in either binding buffer E (20 mM HEPES, pH 7.4, 50 mM NaCl, 2 mM CaCl₂, and 0.1% BSA) or binding buffer F (20 mM HEPES, pH 7.4, 150 mM NaCl, 2 mM CaCl₂, and 0.1% BSA) at 37° C. Human purified VWF (factor VIII free) was purchased from Haematologic Technologies Inc. (Essex Junction, VT) and used in the double-filter nitrocellulose filter binding assay to determine the Kd of every other round and individual clones. VWF SPI and VWF SPIII domains were kindly provided by Dr. J. Evan Sadler (Washington University in St. Louis). Briefly, RNA were dephosphorylated using bacterial alkaline phosphatase (Gibco BRL, Gaithberg, Md.) and end-labeled at the 5′ end with T4 polynucleotide kinase (New England Biolabs, Beverly, Mass.) and [γ³²P] ATP (Amersham Pharmacia Biotech, Piscataway, N.J.) (Fitzwater and Polisky, Methods Enzymol. 267:275-301 (1996)). Direct binding was performed by incubating ³²P-RNA with VWF in physiological buffer+1 mg/ml BSA at 37° C. for 5 min. The fraction of the nucleic acid-protein complex which bound to the nitrocellulose membrane was quantified with a posphoimager (Molecular Dynamics, Sunnyvale, Calif.).

[3] = target: VWF SPI fragment (V8 protease; C-terminal 455 residues of SPIII) (UniProt P04275 P04275:1674-2128); test: filter; 37 C, 2 mM CaCl2; conditions: label: 5'-32P
Experimental: as §1

[4] = target: T2, glycoprotein IIb/IIIa on activated platelets (Homo sapiens, UniProt P08514;P08514;P05106 P08514:32-887,P08514:891-1039,P05106:27-788); test: filter; apparent Kd on activated platelets, 37 C; conditions: label: 5'-32P
Experimental: (§2) In order to correlate the real-time data with binding affinity, purified 11D platelets were isolated and the affinity of each round to activated platelets was measured using nitrocellulose-filter partitioning (Wang et al, Biochemistry 32:1899-1904 (1993)). Since purified gpIIb/IIIa were selected, 80,000 gpIIb/IIIa receptors per platelet were assumed (Tcheng, Am. Heart J. 139:S38-45 (2000)) and the theoretical concentration of the protein was calculated.
(§3) Representative clones from each family were subsequently tested for their ability to bind to purified platelets.

[5] = target: T2, glycoprotein IIb/IIIa on activated …; test: filter; apparent Kd on activated platelets, poorest binder; conditions: label: 5'-32P
Experimental: as §2, §3

B1: 9.14 T10 (ssRNA)
RNA: GGGAGGUGGACGAACUGCCCUCAGCUACUUUCAUGUUGCUGACGCACAGACGACUCGCUG
modifications: 2'-F pyrimidines
- Kd [1]: 44 nM

B2: VWF R9.14 (ssRNA)
RNA: GGGAGGACGAUGCGGUGGACGAACUGCCCUCAGCUACUUUCAUGUUGCUGACGCACAGACGACUCGCUGAGGAUCCGAGA
modifications: 2'-F pyrimidines
- Kd [2]: 12 nM
- binding result [3]: no binding

B3: C1 (ssRNA)
RNA: GGGAGGACGAUGCGGUAUAGACCACAGCCUGAGUAUUAACCACCAACCCAGGUACUCAGACGACUCGCUGAGGAUCC
modifications: 2'-F pyrimidines
- Kd [4]: 6 nM

B4: C3 (ssRNA)
RNA: GGGAGGACGAUGCGGUGCCACAUGCCUCAGAUACAGCACGCACCUUCGACCUAAUCAGACGACUCGCUGAGGAUCC
modifications: 2'-F pyrimidines
- Kd [5]: 62 nM
